Data: article PMC4062093, “The structure of a purple acid phosphatase involved in plant growth and pathogen defence exhibits a novel immunoglobulin-like fold” (Iucrj, 2014)

How the values were obtained:
[1] = molecular target: PPD1 (diphosphonucleotide phosphatase/phosphodiesterase) (Lupinus luteus, UniProt Q8VX11); settings: active site, bidentate, bridging Fe and Mn; crystals from acetate pH 5.2 and Morpheus solution pH 6.5
[2] = molecular target: Diphosphonucleotide phosphatase/phosphodiesterase (PPD1) from yellow lupin (Lupinus luteus) seeds (yellow lupin (Lupinus luteus)); assay: SAXS; PPD1 in solution, 1-4 mg/ml, SWING beamline at SOLEIL; crystallographic hexamer and trimer models fitted with CRYSOL, ab initio shape reconstruction with GASBOR
[3] = molecular target: Diphosphonucleotide phosphatase/phosphodiesterase (PPD1) from yellow lupin (Lupinus luteus) seeds (yellow lupin (Lupinus luteus)); assay: crystal structure; hanging drop at room temperature, 5 mg/ml PPD1 in 20 mM sodium acetate, 0.5 M NaCl pH 5.2 with Morpheus solution 39 (pH 6.5); asymmetric unit a homotrimer, hexamer generated from crystallographic symmetry; 1.65 Å

PPD1 (diphosphonucleotide phosphatase/phosphodiesterase), sequence (Q8VX11 27-615): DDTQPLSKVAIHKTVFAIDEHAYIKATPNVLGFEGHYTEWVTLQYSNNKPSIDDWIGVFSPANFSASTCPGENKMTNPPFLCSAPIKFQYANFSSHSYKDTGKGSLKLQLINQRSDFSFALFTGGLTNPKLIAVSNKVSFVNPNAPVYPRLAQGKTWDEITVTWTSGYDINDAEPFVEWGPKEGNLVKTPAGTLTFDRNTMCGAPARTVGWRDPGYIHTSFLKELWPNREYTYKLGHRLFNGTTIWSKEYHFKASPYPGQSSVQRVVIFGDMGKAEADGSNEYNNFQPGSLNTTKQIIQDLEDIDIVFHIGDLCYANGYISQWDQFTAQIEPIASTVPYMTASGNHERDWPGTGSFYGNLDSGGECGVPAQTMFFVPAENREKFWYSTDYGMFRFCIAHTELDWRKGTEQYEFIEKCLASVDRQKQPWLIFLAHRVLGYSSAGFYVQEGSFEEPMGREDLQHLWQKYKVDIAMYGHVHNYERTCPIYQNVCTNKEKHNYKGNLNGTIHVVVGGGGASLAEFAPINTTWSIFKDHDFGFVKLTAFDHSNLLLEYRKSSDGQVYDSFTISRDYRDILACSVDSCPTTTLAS

Compound	X-ray crystal structure, 1.65 A [1]	stoichiometry N [2]	stoichiometry N [3]
O=P(O)(O)O [phosphate]	active site of PPD1 with a phosphate ion bound to both of the metal atoms		
Diphosphonucleotide phosphatase/phosphodiesterase (PPD1) from yellow lupin (Lupinus luteus) seeds (enzyme)		6	6
